T1: EphA3(h) (human, UniProt P29320 566-983, limits assumed)
T1 sequence (looked up): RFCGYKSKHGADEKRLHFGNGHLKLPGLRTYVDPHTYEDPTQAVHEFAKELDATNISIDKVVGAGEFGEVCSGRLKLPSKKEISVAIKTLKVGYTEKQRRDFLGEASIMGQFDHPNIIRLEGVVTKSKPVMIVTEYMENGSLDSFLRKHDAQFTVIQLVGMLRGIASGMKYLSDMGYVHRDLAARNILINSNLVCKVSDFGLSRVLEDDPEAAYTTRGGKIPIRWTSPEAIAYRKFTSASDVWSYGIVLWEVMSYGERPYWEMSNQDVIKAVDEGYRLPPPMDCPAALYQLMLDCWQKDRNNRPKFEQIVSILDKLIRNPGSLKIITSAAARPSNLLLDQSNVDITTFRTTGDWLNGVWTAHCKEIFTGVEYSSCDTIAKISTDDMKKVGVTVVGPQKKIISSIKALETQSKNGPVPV

T2: IKKβ(h) (human, UniProt O14920 1-756, limits assumed)
T2 sequence (looked up): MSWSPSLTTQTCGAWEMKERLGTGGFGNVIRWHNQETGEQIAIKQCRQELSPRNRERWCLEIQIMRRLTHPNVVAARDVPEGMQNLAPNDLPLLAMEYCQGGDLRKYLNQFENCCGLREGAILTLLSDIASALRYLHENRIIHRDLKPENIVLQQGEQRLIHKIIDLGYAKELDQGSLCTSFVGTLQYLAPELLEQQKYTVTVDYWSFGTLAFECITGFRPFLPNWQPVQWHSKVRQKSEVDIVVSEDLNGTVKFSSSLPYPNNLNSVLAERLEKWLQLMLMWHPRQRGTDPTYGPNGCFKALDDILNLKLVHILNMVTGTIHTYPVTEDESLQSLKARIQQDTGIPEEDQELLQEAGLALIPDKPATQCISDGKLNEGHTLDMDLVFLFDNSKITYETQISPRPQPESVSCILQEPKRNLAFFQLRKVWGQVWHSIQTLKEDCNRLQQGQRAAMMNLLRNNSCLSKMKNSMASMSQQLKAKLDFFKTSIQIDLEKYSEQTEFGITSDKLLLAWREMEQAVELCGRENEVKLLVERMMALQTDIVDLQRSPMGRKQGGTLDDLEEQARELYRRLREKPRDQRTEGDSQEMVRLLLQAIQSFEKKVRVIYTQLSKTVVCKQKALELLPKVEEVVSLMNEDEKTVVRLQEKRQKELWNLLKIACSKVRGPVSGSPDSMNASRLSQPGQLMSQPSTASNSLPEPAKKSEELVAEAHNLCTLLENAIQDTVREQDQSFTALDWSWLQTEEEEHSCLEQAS

T3: Aurora-A(h) (human, UniProt O14965 1-403)
T3 sequence (looked up): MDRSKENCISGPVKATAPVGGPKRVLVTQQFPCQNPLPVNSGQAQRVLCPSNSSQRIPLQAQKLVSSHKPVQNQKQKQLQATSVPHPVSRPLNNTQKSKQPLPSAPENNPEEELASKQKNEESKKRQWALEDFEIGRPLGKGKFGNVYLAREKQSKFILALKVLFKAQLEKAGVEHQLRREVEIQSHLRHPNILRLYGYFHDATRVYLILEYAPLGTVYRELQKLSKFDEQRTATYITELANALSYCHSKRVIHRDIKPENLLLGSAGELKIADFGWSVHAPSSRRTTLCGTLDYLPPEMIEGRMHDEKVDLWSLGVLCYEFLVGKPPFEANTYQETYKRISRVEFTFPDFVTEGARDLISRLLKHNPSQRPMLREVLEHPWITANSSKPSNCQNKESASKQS

T4: TAO1(h) (human, UniProt Q7L7X3 1-320, limits assumed)
T4 sequence (looked up): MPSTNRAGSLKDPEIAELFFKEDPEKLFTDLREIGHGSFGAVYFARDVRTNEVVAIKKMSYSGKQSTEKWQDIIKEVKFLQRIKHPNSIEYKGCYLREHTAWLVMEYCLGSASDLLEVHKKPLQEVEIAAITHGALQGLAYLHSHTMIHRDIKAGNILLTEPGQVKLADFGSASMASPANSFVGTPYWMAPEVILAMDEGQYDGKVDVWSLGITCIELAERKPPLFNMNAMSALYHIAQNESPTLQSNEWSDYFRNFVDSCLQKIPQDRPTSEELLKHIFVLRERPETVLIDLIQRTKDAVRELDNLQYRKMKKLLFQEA

T5: IKKα(h) (human, UniProt O15111 1-745, limits assumed)
T5 sequence (looked up): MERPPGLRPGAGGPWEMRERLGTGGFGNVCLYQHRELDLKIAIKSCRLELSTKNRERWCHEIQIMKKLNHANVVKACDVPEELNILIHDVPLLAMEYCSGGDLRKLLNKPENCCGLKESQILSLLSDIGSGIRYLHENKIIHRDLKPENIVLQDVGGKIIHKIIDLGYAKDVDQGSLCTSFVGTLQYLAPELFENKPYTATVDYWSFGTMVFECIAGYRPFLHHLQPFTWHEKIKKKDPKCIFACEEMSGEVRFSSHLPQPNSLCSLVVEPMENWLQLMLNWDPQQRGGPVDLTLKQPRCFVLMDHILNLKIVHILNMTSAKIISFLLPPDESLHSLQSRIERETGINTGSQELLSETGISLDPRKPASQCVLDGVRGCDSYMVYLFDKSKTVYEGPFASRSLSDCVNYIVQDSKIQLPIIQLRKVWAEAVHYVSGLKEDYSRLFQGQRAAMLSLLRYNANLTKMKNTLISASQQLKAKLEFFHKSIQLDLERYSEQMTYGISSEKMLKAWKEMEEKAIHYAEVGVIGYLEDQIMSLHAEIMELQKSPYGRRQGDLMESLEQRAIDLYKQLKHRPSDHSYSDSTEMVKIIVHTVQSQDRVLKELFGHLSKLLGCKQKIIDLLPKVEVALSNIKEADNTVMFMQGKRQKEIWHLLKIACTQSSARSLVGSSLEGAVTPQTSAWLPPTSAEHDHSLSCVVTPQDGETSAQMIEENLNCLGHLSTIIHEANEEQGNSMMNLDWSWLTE


Experiments:
Test in all cases: cell-based or functional assay
[1] = molecular target: T1, EphA3(h)
[2] = molecular target: T2, IKKβ(h)
[3] = molecular target: mTOR(h) (human, UniProt P42345 1362-2549)
[4] = molecular target: T3, Aurora-A(h)
[5] = molecular target: Rsk2(h) (human, UniProt P51812 1-740, limits assumed)
[6] = molecular target: T4, TAO1(h)
[7] = molecular target: Aurora-B(h) (human, UniProt Q96GD4 1-344)
[8] = molecular target: T5, IKKα(h)
[9] = molecular target: Met(D1246N)(h) (human, UniProt P08581-2 974-1408, limits assumed)
Also: test concentration or dose not given here.

Aurora-B(h), sequence (Q96GD4 whole entry): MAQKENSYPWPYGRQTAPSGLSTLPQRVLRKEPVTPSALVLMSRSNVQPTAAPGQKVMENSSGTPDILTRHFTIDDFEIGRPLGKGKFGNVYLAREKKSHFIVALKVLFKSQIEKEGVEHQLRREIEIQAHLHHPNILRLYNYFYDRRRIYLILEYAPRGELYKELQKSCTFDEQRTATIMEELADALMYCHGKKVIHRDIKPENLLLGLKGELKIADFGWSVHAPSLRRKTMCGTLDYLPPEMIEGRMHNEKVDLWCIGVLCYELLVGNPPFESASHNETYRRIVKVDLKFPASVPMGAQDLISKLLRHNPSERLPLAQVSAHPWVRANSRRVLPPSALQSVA
Rsk2(h), sequence (P51812 whole entry): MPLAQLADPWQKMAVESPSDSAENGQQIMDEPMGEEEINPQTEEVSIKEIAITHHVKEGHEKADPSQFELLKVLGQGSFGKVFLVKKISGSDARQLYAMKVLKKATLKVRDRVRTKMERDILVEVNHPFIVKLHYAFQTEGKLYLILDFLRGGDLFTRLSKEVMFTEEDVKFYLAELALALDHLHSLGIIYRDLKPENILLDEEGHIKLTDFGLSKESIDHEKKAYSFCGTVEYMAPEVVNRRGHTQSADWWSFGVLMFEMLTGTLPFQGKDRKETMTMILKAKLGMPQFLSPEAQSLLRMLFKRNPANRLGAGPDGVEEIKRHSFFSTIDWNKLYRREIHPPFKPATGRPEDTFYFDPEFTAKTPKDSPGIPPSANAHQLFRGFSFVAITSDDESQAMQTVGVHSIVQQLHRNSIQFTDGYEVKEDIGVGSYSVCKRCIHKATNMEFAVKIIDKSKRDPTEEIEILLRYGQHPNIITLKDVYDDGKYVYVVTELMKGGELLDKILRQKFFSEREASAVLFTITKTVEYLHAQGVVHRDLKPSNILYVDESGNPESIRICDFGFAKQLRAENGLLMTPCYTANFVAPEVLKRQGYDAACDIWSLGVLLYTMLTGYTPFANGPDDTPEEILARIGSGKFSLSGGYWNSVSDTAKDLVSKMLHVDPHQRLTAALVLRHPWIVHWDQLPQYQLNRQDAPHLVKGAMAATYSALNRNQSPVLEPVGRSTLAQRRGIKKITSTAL
mTOR(h), sequence (P42345 1362-2549 limits assumed): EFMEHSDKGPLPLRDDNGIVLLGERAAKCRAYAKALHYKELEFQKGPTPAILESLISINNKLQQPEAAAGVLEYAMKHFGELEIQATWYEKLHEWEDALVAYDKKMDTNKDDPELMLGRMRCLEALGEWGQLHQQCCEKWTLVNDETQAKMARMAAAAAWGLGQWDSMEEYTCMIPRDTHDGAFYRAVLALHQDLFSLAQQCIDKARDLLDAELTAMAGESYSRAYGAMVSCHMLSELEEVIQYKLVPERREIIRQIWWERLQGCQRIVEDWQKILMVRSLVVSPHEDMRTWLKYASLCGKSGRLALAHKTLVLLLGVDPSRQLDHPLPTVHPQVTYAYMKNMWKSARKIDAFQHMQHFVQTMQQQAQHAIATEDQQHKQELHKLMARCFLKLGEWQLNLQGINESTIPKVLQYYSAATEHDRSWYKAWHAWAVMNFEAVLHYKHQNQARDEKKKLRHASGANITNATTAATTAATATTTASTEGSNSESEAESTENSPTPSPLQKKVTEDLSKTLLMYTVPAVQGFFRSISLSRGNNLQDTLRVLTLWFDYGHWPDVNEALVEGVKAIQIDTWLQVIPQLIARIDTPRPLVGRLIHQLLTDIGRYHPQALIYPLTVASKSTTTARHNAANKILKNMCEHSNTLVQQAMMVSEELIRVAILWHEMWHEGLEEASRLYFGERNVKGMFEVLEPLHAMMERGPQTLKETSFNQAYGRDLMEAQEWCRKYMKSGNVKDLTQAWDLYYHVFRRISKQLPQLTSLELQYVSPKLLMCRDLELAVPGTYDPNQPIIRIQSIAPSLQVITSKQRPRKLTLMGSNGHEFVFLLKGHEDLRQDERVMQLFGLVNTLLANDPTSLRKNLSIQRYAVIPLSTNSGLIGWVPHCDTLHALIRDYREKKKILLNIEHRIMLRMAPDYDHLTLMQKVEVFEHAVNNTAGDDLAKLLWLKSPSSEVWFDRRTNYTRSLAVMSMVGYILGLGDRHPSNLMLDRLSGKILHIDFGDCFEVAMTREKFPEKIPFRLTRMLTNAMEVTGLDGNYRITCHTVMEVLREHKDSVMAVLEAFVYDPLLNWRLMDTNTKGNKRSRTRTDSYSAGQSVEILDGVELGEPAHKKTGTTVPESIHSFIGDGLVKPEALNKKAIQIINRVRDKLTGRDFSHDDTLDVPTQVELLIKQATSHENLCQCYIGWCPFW

| % activity [1] | % activity [2] | % activity [3] | % activity [4] | % activity [5] | % activity [6] | % activity [7] | % activity [8] | % activity [9] | Binder |
| --- | --- | --- | --- | --- | --- | --- | --- | --- | --- |
| 12% | 84% | 93% | 119% | 38% | 73% | 150% | 87% | 31% | KAFAKLAARLYRKALARQLGVAA [MMI-0400] |
| 6% | 84% | 91% | 92% | 51% | 82% | 128% | 93% | 82% | FAKLAARLYRKALARQLGVAA [MMI-0300] |

From patent US20160200782A1 (MOERAE MATRIX, published 2016)
